Substrate in series [1]: O=c1cc(-c2ccc(O)cc2)oc2cc(O)cc(O)c12
Briefly: purified protein. The note with it: 1.5 mM UDP-glucose, 5 mM MgCl2, Tris-HCl pH 7.4, 37 °C.

Substrate in series [2]: O=c1c(O)c(-c2ccc(O)cc2)oc2cc(O)cc(O)c12
Briefly: purified protein. The conditions noted are these: 1.5 mM UDP-glucose, 5 mM MgCl2, Tris-HCl pH 7.4, 37 °C, 3-O-glucosylation.

Substrate in series [3]: O=c1cc(-c2ccc(O)c(O)c2)oc2cc(O)cc(O)c12
Briefly: purified protein, by the assay type. Also on record: HPLC glucoside product formation by recombinant GST-UGT, 1.5 mM UDP-glucose, Michaelis-Menten fit. The conditions noted are these: pH 8.0; 20.0 °C. On the procedure:
(§1) To determine the kinetic constants of UGTs for flavonoid acceptors, their activities were determined using 0 to 400 μM different flavonoids at a fixed concentration of 1.5 mM UDP-glucose. Flavonoids were purchased from BioBioPha Co., Ltd (www.biobiopha.com/) and UDP-sugars were purchased from Sigma-Aldrich, USA. All Kinetic parameters were calculated using Michaelis-Menten model (Sigma Plot, version 12.5). All the reactions were run in duplicate, and each experiment was repeated twice. The full cDNA of UGTs from Nipponbare (O. sativa L. spp. japonica) were cloned into the pGEX-6p-1 expression vector (Novagen) with a glutathione S-transferase tag. Recombinant proteins were expressed in BL21 (DE3) cells (Novagen) following induction by addition of 0.1 mM isopropy-β-D-thiogalactoside (IPTG) and growing continually for 16 h at 20 °C. Cells were collected and pellets were resuspended in lysis buffer (50 mM Tris-HCl, pH 8.0, 400 mM NaCl). The cells were disrupted by the high pressure cracker and cell debris was removed by centrifugation (14000 g, 1 h). Glutathione Sepharose 4B agarose (GE Healthcare) was added to the supernatant containing the target proteins. After incubation for 1 h, the mixture was transferred into a disposable column and washed extensively with lysis buffer (5 column volumes). Target proteins in collections were confirmed by SDS-PAGE and purified recombinant proteins were selected for enzyme assays and kinetics determination.

Substrate in series [4]: O=c1c(O)c(-c2ccc(O)c(O)c2)oc2cc(O)cc(O)c12
Briefly: purified protein, by the assay type. The arrangement: HPLC glucoside product formation by recombinant GST-UGT, 1.5 mM UDP-glucose, Michaelis-Menten fit. The conditions noted are these: pH 8.0; 20.0 °C. The method, then:
as §1

B1: OsUGT706D1 (Oryza sativa Japonica Group) (protein)
chain: MESKPSRNVVLYAAMGAGHLLPMVELAKLFLTRGLDVTIAVPATPGSGTTGSPTIAGIAASNPSITFHHLPPPPSCADPDPNPLLLMLDVLRRSVPSLASLLRSIPSVAALVLDIFCAEAVDAAAALHVPAYIYFTSAAGAFAASLGLMHHYSTTTTNLRDMGKALLRFPGVPPIPASDMPSLVQDREGRFYKARVKLYARAMEASGVLLNTYEWLEARAMGALREGACSPDRPTPPVYCVGPLVASGEEEGGGVRHACLAWLDAQPARSVVFLCFGSMGSFSAAQLKEIARGLESSGHRFLWVVRSPRQDPANLLEHLPEPDLAALLPEGFLERTADKGMVVKSWAPQAKVLRHAATAAFVTHCGWNSTLEGITAGVPLLCWPLYAEQRMNKVFIVEEMKVGVVIDGYDEEMVSAEEVEAKVRLVMESEEGGKLLERLAVARAKAVEALAEEGPSRVAFDEFIDRLVTSE
notes: full cDNA in pGEX-6p-1, N-terminal GST fusion, E. coli BL21(DE3), glutathione Sepharose purified
On to B1, for which the Km in series [1] (7-O-glucosylation) was determined as 17.7 ± 1.3 µM; in series [2], 16.8 ± 1.3 µM; in series [3], 11.6 ± 0.35 µM; in series [4], 11.9 ± 1.9 µM. The kcat in series [1] (7-O-glucosylation) turned out to be 0.7 ± 0.02 s⁻¹; in series [2], 0.4 ± 0.01 s⁻¹; in series [3], 0.4 ± 0.2 s⁻¹; in series [4], 0.07 s⁻¹. Also, the kcat/Km in series [3] worked out at 40000 M⁻¹ s⁻¹.

B2: OsUGT707A2 (Oryza sativa Japonica Group) (protein)
chain: MAPAMASSAATVVLIPFCVSGHLTPMLEVGKRMLRSRCCGDDDDGRPAMSLTVLLAQLPESHRAPEIDEIIRREAAGASEHSGFDVRFHCLPAEELPDFRGGEDFISRFMQQHASHAREAIAGLESRVAAVVLDWFCTTLLDVTRDLGLPGYVFFTSAASMLSLLLRLPALDKEVAVDFEEMGGAVDLPGLPPVPAALLPTPVMKKGCNYEWLVYHGSRFMEAAGIIVNTVAELEPAVLEAIADGRCVPGRRVPAIYTVGPVLSFKTPPEKPHECVRWLDAQPRASVVFLCFGSMGSFAPPQVLEIAAGLERSGHRFLWVLRGRPPAGSPYPTDADADELLPEGFLERTKGRGMVWPTWAPQKDILAHAAVGGFVTHGGWNSTLESLWHGVPMAPWPLYAEQHLNAFELVRDMGVAVEMEVDRKRGNLVEAAELERAVRCLMDEGSEEGRMAREKAAAAKAACRNAVDGGGSSIAALRKLTQEMAHMSSI
notes: as for B1
As to B2, the Km in series [1] (5-O-glucosylation) amounted to 8.9 ± 1.8 µM; in series [2], 6.7 ± 0.7 µM; in series [3], 1.5 ± 0.5 µM; in series [4], 5.1 ± 0.6 µM. The kcat in series [1] (5-O-glucosylation) turned out to be 0.4 ± 0.06 s⁻¹; in series [2], 0.20 ± 0.01 s⁻¹; in series [3] it was 0.05 ± 0.01 s⁻¹; in series [4], 0.06 ± 0.01 s⁻¹. The figures for the kcat/Km in series [3] and in series [4] were 30000 M⁻¹ s⁻¹ and 10000 M⁻¹ s⁻¹, respectively.

Source of the values: publication PMC5719032, “Differentially evolved glucosyltransferases determine natural variation of rice flavone accumulation and UV-tolerance” (Nature Communications, 2017).
